The results in this text go back to the supplement of paper PMC5998384.

Series [1] has as its system HeLa Kyoto. Nature of the series: solubility in G1/S (NP-40 vs SDS abundance) (log2 ratio); higher = more soluble. Particulars: cell cycle stage: G1/S.
The test system of series [2] is HeLa Kyoto. The experiment in a line: thermal stability score vs G1/S (z-score of summed log2 fold changes over temperatures); higher = more thermally stable than in G1/S.
Series [3] has as its system HeLa Kyoto. The experiment in a line: solubility change mitosis vs G1/S (difference of NP-40 vs SDS log2 ratios) (log2 ratio difference); higher = more soluble in mitosis.
Series [4] relates to HeLa Kyoto. Nature of the series: melting temperature (median over replicates), in situ; higher = more thermally stable.
Setting [5] is: cell cycle stage: early G1 (4.5 h after nocodazole release).
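For melting temperature (median over replicates), in situ in this document: HeLa Kyoto cells synchronized by double thymidine or nocodazole block, proteins quantified by TMT10plex mass spectrometry, three independent biological replicates.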
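For solubility change mitosis vs G1/S (difference of NP-40 vs SDS log2 ratios) in this document: synchronized HeLa Kyoto cells (double thymidine block for G1/S, nocodazole release for mitosis), protein amounts in NP-40 versus SDS lysates quantified by mass spectrometry, three biological replicates.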
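For solubility in G1/S (NP-40 vs SDS abundance) in this document: HeLa Kyoto cells arrested at G1/S by double thymidine block, proteins quantified by TMT10plex mass spectrometry in mild NP-40 versus SDS extracts, three biological replicates.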
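For thermal stability score vs G1/S (z-score of summed log2 fold changes over temperatures) in this document: synchronized HeLa Kyoto cells, proteins quantified by TMT10plex mass spectrometry, three biological replicates, mitosis taken 0.5 h after nocodazole release, G1/S directly after double thymidine block.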

Take “MEEMSGESVVSSAVPAAATRTTSFKGTSPSSKYVKLNVGGALYYTTMQTLTKQDTMLKAMFSGRMEVLTDSEGWILIDRCGKHFGTILNYLRDGAVPLPESRREIEELLAEAKYYLVQGLVEECQAALQNKDTYEPFCKVPVITSSKEEQKLIATSNKPAVKLLYNRSNNKYSYTSNSDDNMLKNIELFDKLSLRFNGRVLFIKDVIGDEICCWSFYGQGRKIAEVCCTSIVYATEKKQTKVEFPEARIYEETLNILLYEAQDGRGPDNALLEATGGAAGRSHHLDEDEERERIERVRRIHIKRPDDRAHLHQ [KCTD10]”: the “solubility in G1/S (log2)” value in series [1] is -1.29. For the same sequence, the values for the thermal stability score in series [2] (setting [5]) and in series [2] (cell cycle stage: mitosis) were 0.937 and 1.24, respectively. For the same sequence, the “solubility change mitosis (log2)” value in series [3] came out at 0.647. The melting temperature in series [4] (cell cycle stage: mitosis) came to 51.6 °C.
Consider “MEESPLSRAPSRGGVNFLNVARTYIPNTKVECHYTLPPGTMPSASDWIGIFKVEAACVRDYHTFVWSSVPESTTDGSPIHTSVQFQASYLPKPGAQLYQFRYVNRQGQVCGQSPPFQFREPRPMDELVTLEEADGGSDILLVVPKATVLQNQLDESQQERNDLMQLKLQLEGQVTELRSRVQELERALATARQEHTELMEQYKGISRSHGEITEERDILSRQQGDHVARILELEDDIQTISEKVLTKEVELDRLRDTVKALTREQEKLLGQLKEVQADKEQSEAELQVAQQENHHLNLDLKEAKSWQEEQSAQAQRLKDKVAQMKDTLGQAQQRVAELEPLKEQLRGAQELAASSQQKATLLGEELASAAAARDRTIAELHRSRLEVAEVNGRLAELGLHLKEEKCQWSKERAGLLQSVEAEKDKILKLSAEILRLEKAVQEERTQNQVFKTELAREKDSSLVQLSESKRELTELRSALRVLQKEKEQLQEEKQELLEYMRKLEARLEKVADEKWNEDATTEDEEAAVGLSCPAALTDSEDESPEDMRLPPYGLCERGDPGSSPAGPREASPLVVISQPAPISPHLSGPAEDSSSDSEAEDEKSVLMAAVQSGGEEANLLLPELGSAFYDMASGFTVGTLSETSTGGPATPTWKECPICKERFPAESDKDALEDHMDGHFFFSTQDPFTFE [CALCOCO1]”, for which, in series [1], the “solubility in G1/S (log2)” value was 0.13. The figures for the thermal stability score in series [2] (setting [5]) and in series [2] (cell cycle stage: mitosis) were 0.0224 and 0.762, respectively. Further, the “solubility change mitosis (log2)” value in series [3] is -0.128. Further, the melting temperature in series [4] (cell cycle stage: G1/S) amounted to 50.2 °C; in series [4] (cell cycle stage: mitosis) it was 50.3 °C.
As for “MEETIKDPPTSAVLLDHCHFSQVIFNSVEKFYIPGGDVTCHYTFTQHFIPRRKDWIGIFRVGWKTTREYYTFMWVTLPIDLNNKSAKQQEVQFKAYYLPKDDEYYQFCYVDEDGVVRGASIPFQFRPENEEDILVVTTQGEVEEIEQHNKELCKENQELKDSCISLQKQNSDMQAELQKKQEELETLQSINKKLELKVKEQKDYWETELLQLKEQNQKMSSENEKMGIRVDQLQAQLSTQEKEMEKLVQGDQDKTEQLEQLKKENDHLFLSLTEQRKDQKKLEQTVEQMKQNETTAMKKQQELMDENFDLSKRLSENEIICNALQRQKERLEGENDLLKRENSRLLSYMGLDFNSLPYQVPTSDEGGARQNPGLAYGNPYSGIQESSSPSPLSIKKCPICKADDICDHTLEQQQMQPLCFNCPICDKIFPATEKQIFEDHVFCHSL [CALCOCO2]”, in series [1], the “solubility in G1/S (log2)” value was 0.203. In addition, the results for the thermal stability score in series [2] (setting [5]) and in series [2] (cell cycle stage: mitosis) were -0.458 and -0.851, respectively. In addition, in series [3], the “solubility change mitosis (log2)” value was -0.0722. Moreover, the results for the melting temperature in series [4] (cell cycle stage: G1/S) and in series [4] (cell cycle stage: mitosis) were 50.5 °C and 51 °C, respectively.
Regarding “MEEVPHDCPGADSAQAGRGASCQGCPNQRLCASGAGATPDTAIEEIKEKMKTVKHKILVLSGKGGVGKSTFSAHLAHGLAEDENTQIALLDIDICGPSIPKIMGLEGEQVHQSGSGWSPVYVEDNLGVMSVGFLLSSPDDAVIWRGPKKNGMIKQFLRDVDWGEVDYLIVDTPPGTSDEHLSVVRYLATAHIDGAVIITTPQEVSLQDVRKEINFCRKVKLPIIGVVENMSGFICPKCKKESQIFPPTTGGAELMCQDLEVPLLGRVPLDPLIGKNCDKGQSFFIDAPDSPATLAYRSIIQRIQEFCNLHQSKEENLISS [NUBP1]”, the “solubility in G1/S (log2)” value in series [1] was determined as 0.398. Besides, the thermal stability score in series [2] (setting [5]) amounted to 3.38; in series [2] (cell cycle stage: mitosis) it was 2.05. The “solubility change mitosis (log2)” value in series [3] turned out to be 0.00361. Besides, the melting temperature in series [4] (cell cycle stage: G1/S) was determined as 52.4 °C; in series [4] (cell cycle stage: mitosis), 52.7 °C.
As for “MEFAELIKTPRVDNVVLHRPFYPAVEGTLCLTGHHLILSSRQDNTEELWLLHSNIDAIDKRFVGSLGTIIIKCKDFRIIQLDIPGMEECLNIASSIEALSTLDSITLMYPFFYRPMFEVIEDGWHSFLPEQEFELYSSATSEWRLSYVNKEFAVCPSYPPIVTVPKSIDDEALRKVATFRHGGRFPVLSYYHKKNGMVIMRSGQPLTGTNGRRCKEDEKLINATLRAGKRGYIIDTRSLNVAQQTRAKGGGFEQEAHYPQWRRIHKSIERYHILQESLIKLVEACNDQTHNMDRWLSKLEASNWLTHIKEILTTACLAAQCIDREGASILIHGTEGTDSTLQVTSLAQIILEPRSRTIRGFEALIEREWLQAGHPFQQRCAQSAYCNTKQKWEAPVFLLFLDCVWQILRQFPCSFEFNENFLIMLFEHAYASQFGTFLGNNESERCKLKLQQKTMSLWSWVNQPSELSKFTNPLFEANNLVIWPSVAPQSLPLWEGIFLRWNRSSKYLDEAYEEMVNIIEYNKELQAKVNILRRQLAELETEDGMQESP [MTMR9]”, in series [1], the “solubility in G1/S (log2)” value is -0.116. The results for the thermal stability score in series [2] (setting [5]) and in series [2] (cell cycle stage: mitosis) were -0.213 and -0.626, respectively. Further, the “solubility change mitosis (log2)” value in series [3] is -0.125. Also, the melting temperature in series [4] (cell cycle stage: G1/S) turned out to be 50.2 °C; in series [4] (cell cycle stage: mitosis), 50.6 °C.
Consider “MEFDLGAALEPTSQKPGVGAGHGGDPKLSPHKVQGRSEAGAGPGPKQGHHSSSDSSSSSSDSDTDVKSHAAGSKQHESIPGKAKKPKVKKKEKGKKEKGKKKEAPH [IMUP]”, for which the “solubility in G1/S (log2)” value in series [1] worked out at 1.09. Also, the thermal stability score in series [2] (setting [5]) is 1.02; in series [2] (cell cycle stage: mitosis), -1.94. Besides, the “solubility change mitosis (log2)” value in series [3] was found to be 0.311. This sequence also showed a melting temperature in series [4] (cell cycle stage: G1/S) of 59.3 °C.
Consider “MEFSSPSREECPKPLSRVSIMAGSLTGLLLLQAVSWASGARPCIPKSFGYSSVVCVCNATYCDSFDPPTFPALGTFSRYESTRSGRRMELSMGPIQANHTGTGLLLTLQPEQKFQKVKGFGGAMTDAAALNILALSPPAQNLLLKSYFSEEGIGYNIIRVPMASCDFSIRTYTYADTPDDFQLHNFSLPEEDTKLKIPLIHRALQLAQRPVSLLASPWTSPTWLKTNGAVNGKGSLKGQPGDIYHQTWARYFVKFLDAYAEHKLQFWAVTAENEPSAGLLSGYPFQCLGFTPEHQRDFIARDLGPTLANSTHHNVRLLMLDDQRLLLPHWAKVVLTDPEAAKYVHGIAVHWYLDFLAPAKATLGETHRLFPNTMLFASEACVGSKFWEQSVRLGSWDRGMQYSHSIITNLLYHVVGWTDWNLALNPEGGPNWVRNFVDSPIIVDITKDTFYKQPMFYHLGHFSKFIPEGSQRVGLVASQKNDLDAVALMHPDGSAVVVVLNRSSKDVPLTIKDPAVGFLETISPGYSIHTYLWRRQ [GBA]”, for which the “solubility in G1/S (log2)” value in series [1] came out at 0.227. For the same sequence, the thermal stability score in series [2] (setting [5]) is -0.371; in series [2] (cell cycle stage: mitosis), 0.189. For the same sequence, the “solubility change mitosis (log2)” value in series [3] is -0.136. Also, the melting temperature in series [4] (cell cycle stage: G1/S) amounted to 55.4 °C; in series [4] (cell cycle stage: mitosis), 55.7 °C.
“MEGAKPTLQLVYQAVQALYHDPDPSGKERASFWLGELQRSVHAWEISDQLLQIRQDVESCYFAAQTMKMKIQTSFYELPTDSHASLRDSLLTHIQNLKDLSPVIVTQLALAIADLALQMPSWKGCVQTLVEKYSNDVTSLPFLLEILTVLPEEVHSRSLRIGANRRTEIIEDLAFYSSTVVSLLMTCVEKAGTDEKMLMKVFRCLGSWFNLGVLDSNFMANNKLLALLFEVLQQDKTSSNLHEAASDCVCSALYAIENVETNLPLAMQLFQGVLTLETAYHMAVAREDLDKVLNYCRIFTELCETFLEKIVCTPGQGLGDLRTLELLLICAGHPQYEVVEISFNFWYRLGEHLYKTNDEVIHGIFKAYIQRLLHALARHCQLEPDHEGVPEETDDFGEFRMRVSDLVKDLIFLIGSMECFAQLYSTLKEGNPPWEVTEAVLFIMAAIAKSVDPENNPTLVEVLEGVVRLPETVHTAVRYTSIELVGEMSEVVDRNPQFLDPVLGYLMKGLCEKPLASAAAKAIHNICSVCRDHMAQHFNGLLEIARSLDSFLLSPEAAVGLLKGTALVLARLPLDKITECLSELCSVQVMALKKLLSQEPSNGISSDPTVFLDRLAVIFRHTNPIVENGQTHPCQKVIQEIWPVLSETLNKHRADNRIVERCCRCLRFAVRCVGKGSAALLQPLVTQMVNVYHVHQHSCFLYLGSILVDEYGMEEGCRQGLLDMLQALCIPTFQLLEQQNGLQNHPDTVDDLFRLATRFIQRSPVTLLRSQVVIPILQWAIASTTLDHRDANCSVMRFLRDLIHTGVANDHEEDFELRKELIGQVMNQLGQQLVSQLLHTCCFCLPPYTLPDVAEVLWEIMQVDRPTFCRWLENSLKGLPKETTVGAVTVTHKQLTDFHKQVTSAEECKQVCWALRDFTRLFR [TNPO3]”: the “solubility in G1/S (log2)” value in series [1] is -0.253. The values for the thermal stability score in series [2] (setting [5]) and in series [2] (cell cycle stage: mitosis) were 0.188 and 1.24, respectively. Further, in series [3], the “solubility change mitosis (log2)” value was -0.0891. For the same sequence, the melting temperature in series [4] (cell cycle stage: G1/S) worked out at 51.6 °C; in series [4] (cell cycle stage: mitosis), 51.7 °C.
As for “MEGESTSAVLSGFVLGALAFQHLNTDSDTEGFLLGEVKGEAKNSITDSQMDDVEVVYTIDIQKYIPCYQLFSFYNSSGEVNEQALKKILSNVKKNVVGWYKFRRHSDQIMTFRERLLHKNLQEHFSNQDLVFLLLTPSIITESCSTHRLEHSLYKPQKGLFHRVPLVVANLGMSEQLGYKTVSGSCMSTGFSRAVQTHSSKFFEEDGSLKEVHKINEMYASLQEELKSICKKVEDSEQAVDKLVKDVNRLKREIEKRRGAQIQAAREKNIQKDPQENIFLCQALRTFFPNSEFLHSCVMSLKNRHVSKSSCNYNHHLDVVDNLTLMVEHTDIPEASPASTPQIIKHKALDLDDRWQFKRSRLLDTQDKRSKADTGSSNQDKASKMSSPETDEEIEKMKGFGEYSRSPTF [FAM175A]”, in series [1], the “solubility in G1/S (log2)” value was 0.0226. Besides, the thermal stability score is -2.44 in series [2] (setting [5]) and -2.5 in series [2] (cell cycle stage: mitosis). Further, the “solubility change mitosis (log2)” value in series [3] was -0.057. The same sequence had a melting temperature in series [4] (cell cycle stage: mitosis) of 57.3 °C.
